In the Human Domainome abundance scans (Beltran et al. 2025) one finds abundance fitness data, which are given here for 35 variants.

± gives the uncertainty stated by the source.

B1: Ankyrin-2, residues 3571 to 3650; numbered along this chain, Q01484 (parent)
chain: ERLAYIADHLGFSWTELARELDFTEEQIHQIRIENPNSLQDQSHALLKYWLERDGKHATDTNLVECLTKINRMDIVHLME

Variants of B1 are the subject of the series. As to the kind of experiment: abundance fitness (aPCA) (normalised: wild type 0, dead -1); higher = more abundant; growth selection in yeast, the domain comes from the species named. To be noted: Homo sapiens.
Turning to ERLAYIADHLGFSWCELARELDFTEEQIHQIRIENPNSLQDQSHALLKYWLERDGKHATDTNLVECLTKINRMDIVHLME [T15C], the abundance fitness is -0.062 ± 0.12.
The result for ERLAYIADHLGFSWTELARELDFTEEQIHQIRIENPNSLQDQSHALLKYWEERDGKHATDTNLVECLTKINRMDIVHLME [L51E] reads -0.111 ± 0.22; that for ERLAYIADHLGFSWTELARELDFTEEQIHQIRIEEPNSLQDQSHALLKYWLERDGKHATDTNLVECLTKINRMDIVHLME [N35E], -0.043 ± 0.088; that for ERLAYIADHLGFSWTELARELDFTEEQIHQIRIENPNSLQDQGHALLKYWLERDGKHATDTNLVECLTKINRMDIVHLME [S43G], -0.093 ± 0.13.
Take ERLAYIADHLGFSWTELARELDFTERQIHQIRIENPNSLQDQSHALLKYWLERDGKHATDTNLVECLTKINRMDIVHLME [E26R]: the abundance fitness was -0.068 ± 0.044.
Regarding ERLAYSADHLGFSWTELARELDFTEEQIHQIRIENPNSLQDQSHALLKYWLERDGKHATDTNLVECLTKINRMDIVHLME [I6S], the abundance fitness was -0.642 ± 0.23.
The result for ERLAYIADHLGFSWTELARELDFTEEQIHQIRIENPNWLQDQSHALLKYWLERDGKHATDTNLVECLTKINRMDIVHLME [S38W] reads -0.358 ± 0.075.
In the case of ERLAYIADHLGFSWTELARELDFTEEQIHQIRIENPNMLQDQSHALLKYWLERDGKHATDTNLVECLTKINRMDIVHLME [S38M], the abundance fitness was -0.059 ± 0.079.
In the case of ERLAYIADHLGFSQTELARELDFTEEQIHQIRIENPNSLQDQSHALLKYWLERDGKHATDTNLVECLTKINRMDIVHLME [W14Q], the abundance fitness is -0.999 ± 0.43.
For ERLAYIADHLGFSGTELARELDFTEEQIHQIRIENPNSLQDQSHALLKYWLERDGKHATDTNLVECLTKINRMDIVHLME [W14G], the abundance fitness is -0.978 ± 0.13.
ERLAYIADHLGFSWTELARELDFTEEQIHQIRIENPNSLQDGSHALLKYWLERDGKHATDTNLVECLTKINRMDIVHLME [Q42G]: the abundance fitness is -0.323 ± 0.19.
For the variant ERLAYIADHLGFSWTELARELDFTEEQIHQIRIENPNSLQDQSHALLKYWLERDGKHATDTNLVEYLTKINRMDIVHLME [C66Y], the abundance fitness was -0.27 ± 0.11.
Consider ERLAYIADHLGFSWTELARELDFTEEQIHQIRIENPNSLQDQSHALLKYWLECDGKHATDTNLVECLTKINRMDIVHLME [R53C], for which the abundance fitness was -0.086 ± 0.098.
As to ERLAYIADHYGFSWTELARELDFTEEQIHQIRIENPNSLQDQSHALLKYWLERDGKHATDTNLVECLTKINRMDIVHLME [L10Y], the abundance fitness is -0.464 ± 0.14.
Next, ERLAYIADHHGFSWTELARELDFTEEQIHQIRIENPNSLQDQSHALLKYWLERDGKHATDTNLVECLTKINRMDIVHLME [L10H]: -0.948 ± 0.37.
For ERLAYIADHLGFSWTELARELDFTEEQIHQIRIENPNSLQDQSHALLKYWLERDGKHATDTNCVECLTKINRMDIVHLME [L63C], the abundance fitness is -0.044 ± 0.13.
As to ERLAYIADHLGFSWTELARELDFTEEQIHQIRIENPNSLQDQSHALLKYWLERDGKHATDTNVVECLTKINRMDIVHLME [L63V], the abundance fitness was -0.091 ± 0.041.
Consider ERLAYIADHLGFSWTELARELDFTEEQIHKIRIENPNSLQDQSHALLKYWLERDGKHATDTNLVECLTKINRMDIVHLME [Q30K], for which the abundance fitness was -0.112 ± 0.15.
For ERLAYIADHLGFSWTELARELDFTEEQIHWIRIENPNSLQDQSHALLKYWLERDGKHATDTNLVECLTKINRMDIVHLME [Q30W], the abundance fitness is -0.209 ± 0.078.
In the case of ERLAYIADHLGFSWTELARELDFTEEQIHQIRIENTNSLQDQSHALLKYWLERDGKHATDTNLVECLTKINRMDIVHLME [P36T], the abundance fitness is -0.052 ± 0.087.
The result for ERLAYIADHLGFSWTELARELDFTEEQIHQIRIENLNSLQDQSHALLKYWLERDGKHATDTNLVECLTKINRMDIVHLME [P36L] reads -0.081 ± 0.061.
Consider ERLAYIADHLGFSWTELARELDFTEEQIHQIRIENFNSLQDQSHALLKYWLERDGKHATDTNLVECLTKINRMDIVHLME [P36F], for which the abundance fitness is -0.08 ± 0.18.
As for ERLAYIADHLGFSWTELARELDFTEEQIHQIRIENPNSLQDQSHALLKYWLERDGKHATDTNLVECLTKIPRMDIVHLME [N71P], the abundance fitness is -0.135 ± 0.057.
ERLAYIADHLGFSWTELARELDFTEEQIHQIRIENPNSLQDQSHALLKYWLERDGKHATDTNLVECLTKIFRMDIVHLME [N71F]: the abundance fitness is -0.343 ± 0.15.
The result for ERLAYIADHLGFSWTELARELDFTEEQIHQIRIENPRSLQDQSHALLKYWLERDGKHATDTNLVECLTKINRMDIVHLME [N37R] reads -0.068 ± 0.052; that for ERLAYIADHLGFSWTELARELDFLEEQIHQIRIENPNSLQDQSHALLKYWLERDGKHATDTNLVECLTKINRMDIVHLME [T24L], -0.144 ± 0.057.
Take ERAAYIADHLGFSWTELARELDFTEEQIHQIRIENPNSLQDQSHALLKYWLERDGKHATDTNLVECLTKINRMDIVHLME [L3A]: the abundance fitness is -0.164 ± 0.065.
As for ERLAYIADHLGFSWTEWARELDFTEEQIHQIRIENPNSLQDQSHALLKYWLERDGKHATDTNLVECLTKINRMDIVHLME [L17W], the abundance fitness is -0.692 ± 0.11.
The result for ERLAYIADHLGFSWTELARELDFTEEQIHQIRIENPNSLQDQSHALLKYWLDRDGKHATDTNLVECLTKINRMDIVHLME [E52D] reads -0.178 ± 0.13; that for ERLAYIADHLGFSWTELARELDFTEEQIHQIRILNPNSLQDQSHALLKYWLERDGKHATDTNLVECLTKINRMDIVHLME [E34L], -0.054 ± 0.049.
Regarding ERLAYIADHLGFSWTELARELDFTAEQIHQIRIENPNSLQDQSHALLKYWLERDGKHATDTNLVECLTKINRMDIVHLME [E25A], the abundance fitness was -0.006 ± 0.054.
For the variant ERLAYIADHLGFSWTELARYLDFTEEQIHQIRIENPNSLQDQSHALLKYWLERDGKHATDTNLVECLTKINRMDIVHLME [E20Y], the abundance fitness is -0.1 ± 0.14.
On to ERLAYIADHLGFSWTELARELDFTEEQIHQIRIENPNSLQDQSHALLKYWLERDGKHATDTNLVECLTKINRMYIVHLME [D74Y], for which the abundance fitness was -0.862 ± 0.24.
As for ERLAYIADHLGFSWTELARELDFTEEQIHQIRIENPNSLQDQSHALLKYWLERDGKHALDTNLVECLTKINRMDIVHLME [T59L], the abundance fitness was -0.04 ± 0.061.
For the variant ERLAYIADHLGFSWTELARELDFTEEQIHQIRIENPNSLQDQSHALLKYWLERDGKHAVDTNLVECLTKINRMDIVHLME [T59V], the abundance fitness was -0.106 ± 0.071.
